Publication PMC11446282 (2024)

B1: IER2 (found with purified B55 variants) [human] / B55α WT (immunopurified, Fig. 2) [not stated] (parent complex)
chain 1: MEVQKEAQRIMTLSVWKMYHSRMQRGGLRLHRSLQLSLVMRSARELYLSAKVEALEPEVSLPAALPSDPRLHPPREAESTAETATPDGEHPFPEPMDTQEAPTAEETSACCAPRPAKVSRKRRSSSLSDGGDAGLVPSKKARLEEKEEEEGASSEVADRLQPPPAQAEGAFPNLARVLQRRFSGLLNCSPAAPPTAPPACEAKPACRPADSMLNVLVRAVVAF
chain 2: MAGAGGGNDIQWCFSQVKGAVDDDVAEADIISTVEFNHSGELLATGDKGGRVVIFQQEQENKIQSHSRGEYNVYSTFQSHEPEFDYLKSLEIEEKINKIRWLPQKNAAQFLLSTNDKTIKLWKISERDKRPEGYNLKEEDGRYRDPTTVTTLRVPVFRPMDLMVEASPRRIFANAHTYHINSISINSDYETYLSADDLRINLWHLEITDRSFNIVDIKPANMEELTEVITAAEFHPNSCNTFVYSSSKGTIRLCDMRASALCDRHSKLFEEPEDPSNRSFFSEIISSISDVKFSHSGRYMMTRDYLSVKIWDLNMENRPVETYQVHEYLRSKLCSLYENDCIFDKFECCWNGSDSVVMTGSYNNFFRMFDRNTKRDITLEASRENNKPRTVLKPRKVCASGKRKKDEISVDSLDFNKKILHTAWHPKENIIAVATTNNLYIFQDKVN

Variants of: B1
Test: immunopurification of YFP-B55α variants (IP: YFP), Western blot quantification; read off a plot
chain 2 MAGAGGGNDIQWCFSQVKGAVDDDVAEADIISTVEFNHSGELLATGDKGGRVVIFQQEQENKIQSHSRGEYNVYSTFQSHEPEFDYLKSLEIEEKINKIRWLPQKNAAQFLLSTNDKTIKLWKISERDKRPEGYNLKEEDGRYRDPTTVTTLRVPVFRPMDLMVEASPRRIFANAHTYHINSISINSDYETYLSADDLRINLWHLEITDRSFNIVDIKPANMEEATEVITAAEFHPNSCNTFVYSSSKGTIRLCDMRASALCDRHSKLFEEPEDPSNRSFFSEIISSISDVKFSHSGRYMMTRDYLSVKIWDLNMENRPVETYQVHEYLRSKLCSLYENDCIFDKFECCWNGSDSVVMTGSYNNFFRMFDRNTKRDITLEASRENNKPRTVLKPRKVCASGKRKKDEISVDSLDFNKKILHTAWHPKENIIAVATTNNLYIFQDKVN [chain 2 L225A] gave a percent of parent of roughly 25%.
Variant chain 2 MAGAGGGNDIQWCFSQVKGAVDDDVAEADIISTVEFNHSGELLATGDKGGRVVIFQQEQENKIQSHSRGEYNVYSTFQSHEPEFDYLKSLEIEEKINKIRWLPQKNAAQFLLSTNDKTIKLWKISERDKRPEGYNLKEEDGRYRDPTTVTTLRVPVFRPMDLMVEASPRRIFANAHTYHINSISINSDYETYLSADDLRINLWHLEITDRSFNIVDIKPANMEELTEVIAAAEFHPNSCNTFVYSSSKGTIRLCDMRASALCDRHSKLFEEPEDPSNRSFFSEIISSISDVKFSHSGRYMMTRDYLSVKIWDLNMENRPVETYQVHEYLRSKLCSLYENDCIFDKFECCWNGSDSVVMTGSYNNFFRMFDRNTKRDITLEASRENNKPRTVLKPRKVCASGKRKKDEISVDSLDFNKKILHTAWHPKENIIAVATTNNLYIFQDKVN [chain 2 T230A] has a percent of parent of roughly 50%.
With chain 2 MAGAGGGNDIQWCFSQVKGAVDDDVAEADIISTVEFNHSGELLATGDKGGRVVIFQQEQENKIQSHSRGEYNVYSTFQSHEPEFDYLKSLEIEEKINKIRWLPQKNAAQFLLSTNDKTIKLWKISERDKRPEGYNLKEEDGRYRDPTTVTTLRVPVFRPMDLMVEASPRRIFANAHTYAINSISINSDYETYLSADDLRINLWHLEITDRSFNIVDIKPANMEELTEVITAAEFHPNSCNTFVYSSSKGTIRLCDMRASALCDRHSKLFEEPEDPSNRSFFSEIISSISDVKFSHSGRYMMTRDYLSVKIWDLNMENRPVETYQVHEYLRSKLCSLYENDCIFDKFECCWNGSDSVVMTGSYNNFFRMFDRNTKRDITLEASRENNKPRTVLKPRKVCASGKRKKDEISVDSLDFNKKILHTAWHPKENIIAVATTNNLYIFQDKVN [chain 2 H179A] the percent of parent was roughly 140%.
With chain 2 MAGAGGGNDIQWCFSQVKGAVDDDVAEADIISTVEFNHSGELLATGDKGGRVVIFQQEQENKIQSHSRGEYNVYSTFQSHEPEFDYLKSLEIEEKINKIRWLPQKNAAQFLLSTNDKTIKLWKISERDKRPEGYNLKEEDGRYRDPTTVTTLRVPVFRPMDLMVEASPRRIFANAHTYHINSISINSDYETYLSADDLRINLWHLEITDRSFNIVDIKPANMEELTEVITAAEFHPNSCNTFVYSSSKGTIRLCDMRASALCDRHSKLFEEPEDPSNRSFFSEIISAISDVKFSHSGRYMMTRDYLSVKIWDLNMENRPVETYQVHEYLRSKLCSLYENDCIFDKFECCWNGSDSVVMTGSYNNFFRMFDRNTKRDITLEASRENNKPRTVLKPRKVCASGKRKKDEISVDSLDFNKKILHTAWHPKENIIAVATTNNLYIFQDKVN [chain 2 S287A] the percent of parent was roughly 67%.
Variant chain 2 MAGAGGGNDIQWCFSQVKGAVDDDVAEADIISTVEFNHSGELLATGDKGGRVVIFQQEQENKIQSHSRGEYNVYSTFQSHEPEFDYLKSLEIEEKINKIRWLPQKNAAQFLLSTNDKTIKLWKISERDKRPEGYNLKEEDGRYRDPTTVTTLRVPVFRPMDLMVEASPRRIFANAHTYHINSISINSDYETYLSADDLRINLWHLEITDRSFNIVDIKPANMEELTEVITAAEFHPNSCNTFVYSSSKGTIRLCDMRASALCDRHSKLFEEPEDPSNRSFFSEIISSISDVKFSHSGRYMMTRDYLSVKIWDLNMENRPVETYQVHEYLRSKLCSLYENACIFDKFECCWNGSDSVVMTGSYNNFFRMFDRNTKRDITLEASRENNKPRTVLKPRKVCASGKRKKDEISVDSLDFNKKILHTAWHPKENIIAVATTNNLYIFQDKVN [chain 2 D340A] has a percent of parent of roughly 2%.
chain 2 MAGAGGGNDIQWCFSQVKGAVDDDVAEADIISTVEFNHSGELLATGDKGGRVVIFQQEQENKIQSHSRGEYNVYSTFQSHEPEFDYLKSLEIEEKINKIRWLPQKNAAQFLLSTNDKTIKLWKISERDKRPEGYNLKEEDGRYRDPTTVTTLRVPVFRPMDLMVEASPRRIFANAHTYHINSISINSDYETYLSADALRINLWHLEITDRSFNIVDIKPANMEELTEVITAAEFHPNSCNTFVYSSSKGTIRLCDMRASALCDRHSKLFEEPEDPSNRSFFSEIISSISDVKFSHSGRYMMTRDYLSVKIWDLNMENRPVETYQVHEYLRSKLCSLYENDCIFDKFECCWNGSDSVVMTGSYNNFFRMFDRNTKRDITLEASRENNKPRTVLKPRKVCASGKRKKDEISVDSLDFNKKILHTAWHPKENIIAVATTNNLYIFQDKVN [chain 2 D197A] showed a percent of parent of roughly 7%.
chain 2 MAGAGGGNDIQWCFSQVKGAVDDDVAEADIISTVEFNHSGELLATGDKGGRVVIFQQEQENKIQSHSRGEYNVYSTFQSHEPEFDYLKSLEIEEKINKIRWLPQKNAAQFLLSTNDKTIKLWKISERDKRPEGYNLKEEDGRYRDPTTVTTLRVPVFRPMDLMVEASPRRIFANAHTYHINSISINSDYETYLSADDLRINLWHLEITDRSFNIVDIKPANMEELTEVITAAEFHPNSCNTFVYSSSKGTIRLCDMRASALCDRHSKLFEEPEDPSNRSFFSEIISSISDVKFSHSGRYMMTRDYLSVKIWDLNMENRPVETYQVHEYLRSKLCSLAENDCIFDKFECCWNGSDSVVMTGSYNNFFRMFDRNTKRDITLEASRENNKPRTVLKPRKVCASGKRKKDEISVDSLDFNKKILHTAWHPKENIIAVATTNNLYIFQDKVN [chain 2 Y337A] showed a percent of parent of roughly 2%.
For chain 2 MAGAGGGNDIQWCFSQVKGAVDDDVAEADIISTVEFNHSGELLATGDKGGRVVIFQQEQENKIQSHSRGEYNVYSTFQSHEPEFDYLKSLEIEEKINKIRWLPQKNAAQFLLSTNDKTIKLWKISERDKRPEGYNLKEEDGRYRDPTTVTTLRVPVFRPMDLMVEASPRRIFANAHTYHINSISINSDYETYLSADDLRINLWHLEITDRSFNIVDIKPANMEELTEVITAAEFHPNSCNTFVYSSSKGTIRLCDMRASALCDRHSKLFEEPEDPSNRSFFSEAISSISDVKFSHSGRYMMTRDYLSVKIWDLNMENRPVETYQVHEYLRSKLCSLYENDCIFDKFECCWNGSDSVVMTGSYNNFFRMFDRNTKRDITLEASRENNKPRTVLKPRKVCASGKRKKDEISVDSLDFNKKILHTAWHPKENIIAVATTNNLYIFQDKVN [chain 2 I284A], the percent of parent was roughly 65%.
For chain 2 MAGAGGGNDIQWCFSQVKGAVDDDVAEADIISTVEFNHSGELLATGDKGGRVVIFQQEQENKIQSHSRGEYNVYSTFQSHEPEFDYLKSLEIEEKINKIRWLPQKNAAQFLLSTNDKTIKLWKISERDKRPEGYNLKEEDGRYRDPTTVTTLRVPVFRPMDLMVEASPRRIFANAHTYHINSISINSDYETYLSADDLRINLWHLEITDRSFNIVDIKPANMEELTEAITAAEFHPNSCNTFVYSSSKGTIRLCDMRASALCDRHSKLFEEPEDPSNRSFFSEIISSISDVKFSHSGRYMMTRDYLSVKIWDLNMENRPVETYQVHEYLRSKLCSLYENDCIFDKFECCWNGSDSVVMTGSYNNFFRMFDRNTKRDITLEASRENNKPRTVLKPRKVCASGKRKKDEISVDSLDFNKKILHTAWHPKENIIAVATTNNLYIFQDKVN [chain 2 V228A], the percent of parent was roughly 70%.
chain 2 MAGAGGGNDIQWCFSQVKGAVDDDVAEADIISTVEFNHSGELLATGDKGGRVVIFQQEQENKIQSHSRGEYNVYSTFQSHEPEFDYLKSLEIEEKINKIRWLPQKNAAQFLLSTNDKTIKLWKISERDKRPEGYNLKEEDGRYRDPTTVTTLRVPVFRPMDLMVEASPRRIFANAHTYHINSISINSDYETYLSADDLRINLWHLEITDRSFNIVDIKPANMEELTEVITAAEFHPNSCNTFVYSSSKGTIRLCDMRASALCDRHSKLFEEPEDPSNRSFFSEIISSISDVKFSHSGRYMMTRDYLSVKIWDLNMENRPVETYQVHEYLRSKLCSLYENDCIADKFECCWNGSDSVVMTGSYNNFFRMFDRNTKRDITLEASRENNKPRTVLKPRKVCASGKRKKDEISVDSLDFNKKILHTAWHPKENIIAVATTNNLYIFQDKVN [chain 2 F343A] was tested, and the percent of parent was roughly 30%.
chain 2 MAGAGGGNDIQWCFSQVKGAVDDDVAEADIISTVEFNHSGELLATGDKGGRVVIFQQEQENKIQSHSRGEYNVYSTFQSHEPEFDYLKSLEIEEKINKIRWLPQKNAAQFLLSTNDKTIKLWKISERDKRPEGYNLKEEDGRYRDPTTVTTLRVPVFRPMDLMVEASPRRIFANAHTAHINSISINSDYETYLSADDLRINLWHLEITDRSFNIVDIKPANMEELTEVITAAEFHPNSCNTFVYSSSKGTIRLCDMRASALCDRHSKLFEEPEDPSNRSFFSEIISSISDVKFSHSGRYMMTRDYLSVKIWDLNMENRPVETYQVHEYLRSKLCSLYENDCIFDKFECCWNGSDSVVMTGSYNNFFRMFDRNTKRDITLEASRENNKPRTVLKPRKVCASGKRKKDEISVDSLDFNKKILHTAWHPKENIIAVATTNNLYIFQDKVN [chain 2 Y178A] was tested, and the percent of parent was roughly 55%.
chain 2 MAGAGGGNDIQWCFSQVKGAVDDDVAEADIISTVEFNHSGELLATGDKGGRVVIFQQEQENKIQSHSRGEYNVYSTFQSHEPEFDYLKSLEIEEKINKIRWLPQKNAAQFLLSTNDKTIKLWKISERDKRPEGYNLKEEDGRYRDPTTVTTLRVPVFRPMDLMVEASPRRIFANAHTYHINSISINSDYETYLSADDARINLWHLEITDRSFNIVDIKPANMEELTEVITAAEFHPNSCNTFVYSSSKGTIRLCDMRASALCDRHSKLFEEPEDPSNRSFFSEIISSISDVKFSHSGRYMMTRDYLSVKIWDLNMENRPVETYQVHEYLRSKLCSLYENDCIFDKFECCWNGSDSVVMTGSYNNFFRMFDRNTKRDITLEASRENNKPRTVLKPRKVCASGKRKKDEISVDSLDFNKKILHTAWHPKENIIAVATTNNLYIFQDKVN [chain 2 L198A] showed a percent of parent of roughly 3%.
Work on chain 2 MAGAGGGNDIQWCFSQVKGAVDDDVAEADIISTVEFNHSGELLATGDKGGRVVIFQQEQENKIQSHSRGEYNVYSTFQSHEPEFDYLKSLEIEEKINKIRWLPQKNAAQFLLSTNDKTIKLWKISERDKRPEGYNLKEEDGRYRDPTTVTTLRVPVFRPMDLMVEASPRRIFANAHTYHINSISINSDYETYLSADDLRINLWHLEITDRSFNIVDIKPANMEELTEVITAAEFHPNSCNTFVYSSSKGTIRLCDMRASALCDRHSKLFEEPEDPSNRSAFSEIISSISDVKFSHSGRYMMTRDYLSVKIWDLNMENRPVETYQVHEYLRSKLCSLYENDCIFDKFECCWNGSDSVVMTGSYNNFFRMFDRNTKRDITLEASRENNKPRTVLKPRKVCASGKRKKDEISVDSLDFNKKILHTAWHPKENIIAVATTNNLYIFQDKVN [chain 2 F280A] yielded a percent of parent of roughly 83%.
